This is an account of results in PMC6698902.

Targets include A3B-CTD P206G (Homo sapiens, UniProt Q9UH17 187-382, E255A;P206G); A3B-CTD R211A (Homo sapiens, UniProt Q9UH17 187-382, E255A;R211A); A3B-CTD Y315F (Homo sapiens, UniProt Q9UH17 187-382, E255A;Y315F).
Common to all, as to assay: fluorescence anisotropy
A general note: In fluorescence polarisation assays a small probe gives low polarisation when free and higher when bound to something large.

The target of series [1] is T1, A3B-CTD E255A (inactive, 'WT') (Homo sapiens, UniProt Q9UH17 187-382, E255A).
T1 sequence (Q9UH17 187-382 E255A): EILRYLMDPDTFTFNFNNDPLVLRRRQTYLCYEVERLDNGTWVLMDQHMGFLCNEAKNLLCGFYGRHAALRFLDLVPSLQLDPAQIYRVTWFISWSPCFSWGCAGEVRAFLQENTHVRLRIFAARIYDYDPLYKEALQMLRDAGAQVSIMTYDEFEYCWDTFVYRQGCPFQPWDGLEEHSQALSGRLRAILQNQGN
For series [2], the target named is T1, A3B-CTD E255A (inactive, 'WT'). The source holds these as a separate data set.

Chain of A3B-CTD P206G (Q9UH17 187-382 P206G/E255A): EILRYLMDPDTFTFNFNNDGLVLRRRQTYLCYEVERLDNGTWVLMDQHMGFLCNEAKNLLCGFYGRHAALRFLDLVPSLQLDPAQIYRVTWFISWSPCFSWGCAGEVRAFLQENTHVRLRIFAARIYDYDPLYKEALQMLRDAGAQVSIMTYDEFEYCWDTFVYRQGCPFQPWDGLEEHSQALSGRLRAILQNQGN
Chain of A3B-CTD R211A (Q9UH17 187-382 R211A/E255A): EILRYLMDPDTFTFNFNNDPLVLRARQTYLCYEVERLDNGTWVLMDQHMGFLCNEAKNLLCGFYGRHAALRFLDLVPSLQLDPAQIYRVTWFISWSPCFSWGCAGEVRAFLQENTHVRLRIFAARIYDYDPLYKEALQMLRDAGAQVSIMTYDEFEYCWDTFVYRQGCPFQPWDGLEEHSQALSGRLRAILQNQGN
Chain of A3B-CTD Y315F (Q9UH17 187-382 E255A/Y315F): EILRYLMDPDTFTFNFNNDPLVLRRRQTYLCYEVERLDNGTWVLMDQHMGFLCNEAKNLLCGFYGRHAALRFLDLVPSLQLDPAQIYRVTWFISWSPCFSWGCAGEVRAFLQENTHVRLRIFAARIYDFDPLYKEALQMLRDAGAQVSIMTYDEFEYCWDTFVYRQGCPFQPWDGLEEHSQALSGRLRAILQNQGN

AAAAAAAATCGAAAA (ssDNA) [polyA TCG (linear DNA)] came in with a Kd in series [1] of 5.4 µM. Besides, the binding result in the series with A3B-CTD P206G and with A3B-CTD R211A was “no binding” in each case.

With GCCAUCUAUCGAUGG (structured_RNA) [RNA hairpin], in series [2], the binding result is “no binding”.

As to GCCATCATTCGATGGG (structured_DNA) [DNA hairpin], the dissociation constant (Kd) in series [1] worked out at 2 µM. Besides, the binding result with A3B-CTD Y315F is on record as “binds”; in the series with A3B-CTD P206G, “no binding”; in the series with A3B-CTD R211A, “no binding”.

What is called Kd is the constant that tells how readily two partners part at equilibrium.
